Source: patent publication US20090148436A1 (Pfizer, published 2009)
One block for each binder: values may come before it.

Columns and labels:
[1] = target: T1, mature human GDF8 (growth and differentiation factor-8, myostatin) (human, UniProt O14793 267-375); assay: cell-based or functional assay
[2] = target: T1, mature human GDF8 (growth and …); assay: SPR (BIAcore 2000), biotinylated GDF-8 on streptavidin chip, antibody 2.3-300 nM in solution
[3] = target: T2, mature BMP11 (human, UniProt O95390 299-407); assay: ELISA: antibody titrated on biotinylated BMP11 held on a streptavidin plate (title SA/BIO BMP11 ELISA), OD 450 nm
T2 construct: mature; it is not certain that 'human' covers BMP11; It was biotinylated in the ELISA; also called biotinylated BMP11
T2 sequence (O95390 299-407): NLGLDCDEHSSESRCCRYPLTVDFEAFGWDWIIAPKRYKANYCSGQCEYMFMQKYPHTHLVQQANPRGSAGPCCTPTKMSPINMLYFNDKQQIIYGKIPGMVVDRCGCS

[4] = target: T1, mature human GDF8 (growth and …); assay: ELISA: antibody titrated on biotinylated GDF8 held on a streptavidin plate (title SA/BIO GDF8 BINDING ELISA), OD 450 nm
[5] = target: T1, mature human GDF8 (growth and …); assay: sandwich ELISA: RK22 coated, GDF-8 titrated, biotinylated RK35 as detector, in THST; the concentration is that of GDF-8
[6] = target: T1, mature human GDF8 (growth and …); assay: BIAcore 2000, RK22 over biotinylated GDF-8 on Sensor Chip SA; Langmuir model (global analysis), row Average of three independent experiments
[7] = target: T1, mature human GDF8 (growth and …); assay: BIAcore 2000, RK22 over biotinylated GDF-8 on Sensor Chip SA; Bivalent model (global analysis), ka1/kd1, row Average of three independent experiments
[8] = target: T1, mature human GDF8 (growth and …); assay: BIAcore 2000, RK22 (lot PK1901, activity 82.54 %) over biotinylated GDF-8 on Sensor Chip SA; 71 RU (2.6.03), Langmuir model (global analysis), Rmax 44.00, Chi2 7.47
[9] = target: T1, mature human GDF8 (growth and …); assay: BIAcore 2000, RK22 (lot PK1901, activity 82.54 %) over biotinylated GDF-8 on Sensor Chip SA; 45 RU (4.30.03), Langmuir model (global analysis), Rmax 84.00, Chi2 2.12
[10] = target: T1, mature human GDF8 (growth and …); assay: BIAcore 2000, RK22 (lot PK1901, activity 82.54 %) over biotinylated GDF-8 on Sensor Chip SA; 42.4 RU (6.14.03), Langmuir model (global analysis), Rmax 39.4, Chi2 3.67
[11] = target: T1, mature human GDF8 (growth and …); assay: BIAcore 2000, RK22 (lot PK1901, activity 82.54 %) over biotinylated GDF-8 on Sensor Chip SA; 71 RU (2.6.03), Bivalent model (global analysis), ka1/kd1, Rmax 53.00, Chi2 0.84
[12] = target: T1, mature human GDF8 (growth and …); assay: BIAcore 2000, RK22 (lot PK1901, activity 82.54 %) over biotinylated GDF-8 on Sensor Chip SA; 45 RU (4.30.03), Bivalent model (global analysis), ka1/kd1, Rmax 84.00, Chi2 1.29
[13] = target: T1, mature human GDF8 (growth and …); assay: BIAcore 2000, RK22 (lot PK1901, activity 82.54 %) over biotinylated GDF-8 on Sensor Chip SA; 42.4 RU (6.14.03), Bivalent model (global analysis), ka1/kd1, Rmax 49.2, Chi2 0.299
[14] = target: T1, mature human GDF8 (growth and …); assay: soluble ActRIIB as competitor: inhibition of the binding of biotinylated GDF8 (20 ng/ml) to plate-coated ActRIIB-Fc; axis OD 450 nm
[15] = target: T1, mature human GDF8 (growth and …); assay: inhibition of the binding of biotinylated GDF8 (20 ng/ml), preincubated with the titrated protein, to plate-coated ActRIIB-Fc; axis OD 450 nm

IC50, pGL3(CAGA)12 luciferase reporter in A204 cells treated with 10 ng/ml GDF8 [1]: 0.4 nM
Kd [2]: 7 nM
EC50 [3]: 61.2 mg/L
EC50 [4]: 0.193 mg/L
EC50 (read off the curve) [5]: ~0.0003 mg/L
Ka [6]: 2.18e+08 M⁻¹
Kd [6]: 6.89 nM
koff [6]: 0.000562 s⁻¹
kon [6]: 116000 M⁻¹ s⁻¹
Ka [7]: 8.44e+07 M⁻¹
Kd [7]: 15.2 nM
koff [7]: 0.000708 s⁻¹
kon [7]: 61600 M⁻¹ s⁻¹
Ka [8]: 2.58e+08 M⁻¹
Kd [8]: 3.88 nM
koff [8]: 0.000572 s⁻¹
kon [8]: 147000 M⁻¹ s⁻¹
Ka [9]: 7.28e+07 M⁻¹
Kd [9]: 13.7 nM
koff [9]: 0.000633 s⁻¹
kon [9]: 46100 M⁻¹ s⁻¹
Ka [10]: 3.24e+08 M⁻¹
Kd [10]: 3.09 nM
koff [10]: 0.000482 s⁻¹
kon [10]: 156000 M⁻¹ s⁻¹
Ka [11]: 1.07e+08 M⁻¹
Kd [11]: 9.33 nM
koff [11]: 0.00078 s⁻¹
kon [11]: 83600 M⁻¹ s⁻¹
Ka [12]: 3.67e+07 M⁻¹
Kd [12]: 27.3 nM
koff [12]: 0.00063 s⁻¹
kon [12]: 23100 M⁻¹ s⁻¹
Ka [13]: 1.09e+08 M⁻¹
Kd [13]: 9.14 nM
koff [13]: 0.000714 s⁻¹
kon [13]: 78100 M⁻¹ s⁻¹
B1: RK22 murine monoclonal anti-GDF8 antibody (antibody, V domains shown)
VH: QVQLQQSGAELARPGASVKLSCKASGYTFTSYWMQWVKQRPGQGLEWIGAIYPGDGDTRYTQKFKGKATLTADKSSSTAYMQLSSLASEDSAVYYCARMGGYDRYYFDYWGQGTTLTVSS
VL: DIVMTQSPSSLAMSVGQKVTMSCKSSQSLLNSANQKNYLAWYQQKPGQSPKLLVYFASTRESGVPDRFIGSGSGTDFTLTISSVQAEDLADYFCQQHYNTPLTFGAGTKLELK
notes: Mouse monoclonal from a hybridoma (GDF8 knockout mice); It was biotinylated when used as the ELISA detector; also called RK22 antibody; biotinylated RK22

IC50 (read off the curve) [14]: ~0.3 nM
B2: Recombinant ActRIIB-Fc chimera (R&D Systems, Cat. No. 339-RB/CF) (Fc fusion)
chain: SGRGEAETRECIYYNANWELERTNQSGLERCEGEQDKRLHCYASWRNSSGTIELVKKGCWLDDFNCYDRQECVATEENPQVYFCCCEGNFCNERFTHLPEAGGPEVTYEPPPTAPT
notes: Bought construct; also called ActRIIB fusion protein; ActIIRB; Fc part of the bought chimera not given

IC50 (read off the curve) [15]: ~0.3 nM
B3: MYO-029 human IgG1 anti-GDF-8 antibody (antibody, V domains shown)
VH: QVQLVQSGAEVKKPGASVKVSCKASGYTFTSYYMHWVRQAPGQGLEWMGIINPSGGSTSYAQKFQGRVTMTRDTSTSTVYMELSSLRSEDTAVYYCARDENWGFDPWGQGTLVTVSS
VL: SYELTQPPSVSVSPGQTATITCSGHALGDKFVSWYQQGSGQSPVLVIYDDTQRPSGIPGRFSGSNSGNTATLTISGTQAMDEADYFCQAWDSSFVFGGGTKVTVL
